Results taken from PMC6769586.

Legend:
[1] = biological target: T1, CYP2C8-R139K (human) (UniProt P10632)
T1 sequence: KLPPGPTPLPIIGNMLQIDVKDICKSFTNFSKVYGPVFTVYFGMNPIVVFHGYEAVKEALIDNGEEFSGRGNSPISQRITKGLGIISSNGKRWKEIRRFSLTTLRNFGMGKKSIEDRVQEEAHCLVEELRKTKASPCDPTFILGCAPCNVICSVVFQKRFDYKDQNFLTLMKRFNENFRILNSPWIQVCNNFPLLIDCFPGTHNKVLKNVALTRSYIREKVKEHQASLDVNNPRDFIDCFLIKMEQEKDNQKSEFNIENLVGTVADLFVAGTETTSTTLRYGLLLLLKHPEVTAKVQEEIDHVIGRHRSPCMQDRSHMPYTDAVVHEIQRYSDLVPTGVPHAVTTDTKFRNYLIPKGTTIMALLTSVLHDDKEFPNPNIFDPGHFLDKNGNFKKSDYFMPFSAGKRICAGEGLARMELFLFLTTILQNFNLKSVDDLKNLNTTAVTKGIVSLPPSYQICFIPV

[2] = biological target: T2, CYP2C8-K399R (human) (UniProt P10632)
T2 sequence: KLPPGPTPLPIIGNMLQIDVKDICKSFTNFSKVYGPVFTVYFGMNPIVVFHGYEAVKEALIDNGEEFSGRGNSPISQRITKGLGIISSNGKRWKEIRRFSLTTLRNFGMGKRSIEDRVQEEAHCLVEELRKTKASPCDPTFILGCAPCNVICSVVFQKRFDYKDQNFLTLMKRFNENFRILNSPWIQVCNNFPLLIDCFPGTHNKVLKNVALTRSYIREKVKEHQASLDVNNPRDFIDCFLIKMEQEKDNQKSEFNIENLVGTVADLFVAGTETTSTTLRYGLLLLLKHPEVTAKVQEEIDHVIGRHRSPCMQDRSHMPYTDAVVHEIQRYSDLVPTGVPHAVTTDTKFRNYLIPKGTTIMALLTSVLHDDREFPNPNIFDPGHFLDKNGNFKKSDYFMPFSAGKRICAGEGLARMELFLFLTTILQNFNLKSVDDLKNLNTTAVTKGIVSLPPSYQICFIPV

[3] = biological target: T3, Cytochrome P450 2C8 (CYP2C8*1, wildtype) (human) (UniProt P10632)
T3 sequence: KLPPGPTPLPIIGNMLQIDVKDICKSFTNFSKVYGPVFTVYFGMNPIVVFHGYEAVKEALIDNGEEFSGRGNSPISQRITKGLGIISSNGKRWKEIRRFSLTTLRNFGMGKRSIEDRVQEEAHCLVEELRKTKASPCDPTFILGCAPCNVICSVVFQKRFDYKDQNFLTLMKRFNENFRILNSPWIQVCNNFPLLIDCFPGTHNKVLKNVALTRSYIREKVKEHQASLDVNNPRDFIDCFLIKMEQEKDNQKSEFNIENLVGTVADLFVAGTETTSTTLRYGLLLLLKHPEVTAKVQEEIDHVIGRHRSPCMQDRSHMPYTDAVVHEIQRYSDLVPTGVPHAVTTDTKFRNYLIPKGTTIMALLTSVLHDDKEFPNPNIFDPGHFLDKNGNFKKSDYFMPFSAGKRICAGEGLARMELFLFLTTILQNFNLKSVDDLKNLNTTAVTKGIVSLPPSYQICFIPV

[4] = biological target: T4, Cytochrome P450 2C8 R139K/K399R (CYP2C8*3) (human) (UniProt P10632)
T4 sequence: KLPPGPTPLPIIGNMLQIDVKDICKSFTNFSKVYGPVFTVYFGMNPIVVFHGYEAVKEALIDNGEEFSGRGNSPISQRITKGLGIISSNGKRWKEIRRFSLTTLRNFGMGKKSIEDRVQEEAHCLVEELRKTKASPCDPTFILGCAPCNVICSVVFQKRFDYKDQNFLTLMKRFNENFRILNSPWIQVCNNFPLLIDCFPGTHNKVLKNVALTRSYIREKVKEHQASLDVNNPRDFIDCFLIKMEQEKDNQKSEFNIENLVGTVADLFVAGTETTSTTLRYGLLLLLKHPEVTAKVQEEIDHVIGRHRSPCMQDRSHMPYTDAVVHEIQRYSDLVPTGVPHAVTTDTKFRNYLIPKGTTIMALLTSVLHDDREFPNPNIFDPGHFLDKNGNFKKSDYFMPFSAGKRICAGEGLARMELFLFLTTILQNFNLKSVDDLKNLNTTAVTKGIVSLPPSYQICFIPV

B1: Cytochrome P450 reductase (enzyme)
chain: MGDSHEDTSATMPEAVAEEVSLFSTTDMVLFSLIVGVLTYWFIFRKKKEEIPEFSKIQTTAPPVKESSFVEKMKKTGRNIIVFYGSQTGTAEEFANRLSKDAHRYGMRGMSADPEEYDLADLSSLPEIDKSLVVFCMATYGEGDPTDNAQDFYDWLQETDVDLTGVKFAVFGLGNKTYEHFNAMGKYVDQRLEQLGAQRIFELGLGDDDGNLEEDFITWREQFWPAVCEFFGVEATGEESSIRQYELVVHEDMDVAKVYTGEMGRLKSYENQKPPFDAKNPFLAAVTANRKLNQGTERHLMHLELDISDSKIRYESGDHVAVYPANDSALVNQIGEILGADLDVIMSLNNLDEESNKKHPFPCPTTYRTALTYYLDITNPPRTNVLYELAQYASEPSEQEHLHKMASSSGEGKELYLSWVVEARRHILAILQDYPSLRPPIDHLCELLPRLQARYYSIASSSKVHPNSVHICAVAVEYEAKSGRVNKGVATSWLRAKEPAGENGGRALVPMFVRKSQFRLPFKSTTPVIMVGPGTGIAPFMGFIQERAWLREQGKEVGETLLYYGCRRSDEDYLYREELARFHKDGALTQLNVAFSREQAHKVYVQHLLKRDREHLWKLIHEGGAHIYVCGDARNMAKDVQNTFYDIVAEFGPMEHTQAVDYVKKLMTKGRYSLDVWS
- stopped-flow CO binding (first electron transfer from CPR), fast phase k1, 1:1 CPR:CYP, 70 uM paclitaxel, 37 °C [1]: 0.406 s⁻¹
- stopped-flow CO binding (first electron transfer from CPR), monophasic k2, 3:1 CPR:CYP, 70 uM paclitaxel, 37 °C [1]: 6.02 ms^-1
- stopped-flow CO binding (first electron transfer from CPR), fast phase k1, 1:1 CPR:CYP, 70 uM paclitaxel, 37 °C [2]: 0.445 s⁻¹
- stopped-flow CO binding (first electron transfer from CPR), slow phase k2, 1:1 CPR:CYP, 70 uM paclitaxel, 37 °C [2]: 19.4 ms^-1
- stopped-flow CO binding (first electron transfer from CPR), fast phase k1, 1:1 CPR:CYP, 70 uM paclitaxel, 37 °C [3]: 0.468 s⁻¹
- stopped-flow CO binding (first electron transfer from CPR), monophasic k2, 3:1 CPR:CYP, 70 uM paclitaxel, 37 °C [4]: 13.7 ms^-1
